B1: EWEµH (other)
chain: EWEQVQLVETGGGLVQAGGSLRLSCAASGSIFSINAMGWFRQAPGKEREFVATINRSGGRTYYADSVKGRFTISRDNGKNMVYLQMHSLKPEDTAIYYCAAGTGWSPQTDNEYNYWGQGTQVTVSSGGGGSGGGGSGGGGSGGGGSRPCGHPGDTPFGTFTLTGGNVFEYGVKAVYTCNEGYQLLGEINYRECDTDGWTNDIPICEVVKCLPVTAPENGKIVSSAMEPDREYHFGQAVRFVCNSGYKIEGDEEMHCSDDGFWSKEKPKCVEISCKSPDVINGSPISQKIIYKENERFQYKCNMGYEYSERGDAVCTESGWRPLPSCEEAGGGGGGGGGGGGGKCGPPPPIDNGDITSFPLSVYAPASSVEYQCQNLYQLEGNKRITCRNGQWSEPPKCLHPCVISREIMENYNIALRWTAKQKLYSRTGESVEFVCKRGYRLSSRSHTLRTTCWDGKLEYPTCAKRENLYFQG
B2: EWE-hC3Nb1 (VHH)
VHH: QVQLVETGGGLVQAGGSLRLSCAASGSIFSINAMGWFRQAPGKEREFVATINRSGGRTYYADSVKGRFTISRDNGKNMVYLQMHSLKPEDTAIYYCAAGTGWSPQTDNEYNYWGQGTQVTVSS
B3: EWEnH (other)
chain: EWEQVQLVETGGGLVQAGGSLRLSCAASGSIFSINAMGWFRQAPGKEREFVATINRSGGRTYYADSVKGRFTISRDNGKNMVYLQMHSLKPEDTAIYYCAAGTGWSPQTDNEYNYWGQGTQVTVSSGGGGSGGGGSGGGGSGGGGSRPCGHPGDTPFGTFTLTGGNVFEYGVKAVYTCNEGYQLLGEINYRECDTDGWTNDIPICEVVKCLPVTAPENGKIVSSAMEPDREYHFGQAVRFVCNSGYKIEGDEEMHCSDDGFWSKEKPKCVEISCKSPDVINGSPISQKIIYKENERFQYKCNMGYEYSERGDAVCTESGWRPLPSCEEA

Chain of C3b (P01024 23-667, chain 1 of 2): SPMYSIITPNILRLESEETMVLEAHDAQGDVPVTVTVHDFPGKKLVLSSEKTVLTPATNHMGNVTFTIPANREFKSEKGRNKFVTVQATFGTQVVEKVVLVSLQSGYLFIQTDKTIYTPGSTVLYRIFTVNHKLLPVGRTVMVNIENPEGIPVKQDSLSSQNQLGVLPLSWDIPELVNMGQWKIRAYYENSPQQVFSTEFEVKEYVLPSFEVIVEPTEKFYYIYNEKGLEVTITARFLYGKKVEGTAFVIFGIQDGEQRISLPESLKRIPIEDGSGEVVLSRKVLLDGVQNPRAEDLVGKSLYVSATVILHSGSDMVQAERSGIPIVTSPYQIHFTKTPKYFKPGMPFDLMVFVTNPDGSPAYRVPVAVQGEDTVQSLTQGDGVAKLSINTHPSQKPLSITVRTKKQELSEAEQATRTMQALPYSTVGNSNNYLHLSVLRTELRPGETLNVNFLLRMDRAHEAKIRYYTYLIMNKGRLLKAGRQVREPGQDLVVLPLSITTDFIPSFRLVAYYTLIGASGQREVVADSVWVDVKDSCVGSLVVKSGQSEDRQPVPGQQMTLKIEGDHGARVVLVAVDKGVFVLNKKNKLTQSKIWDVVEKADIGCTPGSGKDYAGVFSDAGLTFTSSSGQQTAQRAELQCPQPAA
Chain of C3b (P01024 749-1663, chain 2 of 2): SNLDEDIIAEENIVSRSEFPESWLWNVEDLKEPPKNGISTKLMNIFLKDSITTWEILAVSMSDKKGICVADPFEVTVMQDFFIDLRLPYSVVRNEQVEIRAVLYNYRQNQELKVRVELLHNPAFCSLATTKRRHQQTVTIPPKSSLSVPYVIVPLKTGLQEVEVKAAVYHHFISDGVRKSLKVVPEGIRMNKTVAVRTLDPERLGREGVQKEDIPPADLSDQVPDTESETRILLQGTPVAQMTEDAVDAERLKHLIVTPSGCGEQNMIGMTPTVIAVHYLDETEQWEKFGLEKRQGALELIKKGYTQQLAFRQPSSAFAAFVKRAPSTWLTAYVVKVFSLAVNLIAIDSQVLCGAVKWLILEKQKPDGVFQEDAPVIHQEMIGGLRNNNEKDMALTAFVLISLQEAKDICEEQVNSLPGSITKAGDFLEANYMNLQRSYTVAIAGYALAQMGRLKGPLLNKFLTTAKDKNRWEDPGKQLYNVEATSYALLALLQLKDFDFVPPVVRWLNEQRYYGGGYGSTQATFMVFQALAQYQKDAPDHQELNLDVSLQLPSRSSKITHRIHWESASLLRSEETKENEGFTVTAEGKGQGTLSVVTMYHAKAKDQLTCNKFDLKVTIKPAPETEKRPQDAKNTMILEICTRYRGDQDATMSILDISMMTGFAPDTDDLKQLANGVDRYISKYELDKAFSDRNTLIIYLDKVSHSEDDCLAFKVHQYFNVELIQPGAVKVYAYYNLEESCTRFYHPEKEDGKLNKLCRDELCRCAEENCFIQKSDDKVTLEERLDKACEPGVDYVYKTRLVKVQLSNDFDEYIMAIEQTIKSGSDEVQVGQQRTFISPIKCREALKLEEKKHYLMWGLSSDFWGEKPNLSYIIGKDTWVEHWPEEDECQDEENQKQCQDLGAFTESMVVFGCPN

This assay has as its target C3b (UniProt P01024 23-667; P01024 749-1663). As to the kind of experiment: BLI. A general note: BLI is a label-free optical method that tracks binding on a fibre tip over time.
As for B1, the Kd was determined as 0.4 nM.
In the case of B2 it was 3 nM; in that of B3, 7.1 nM.

One may read the Kd as the constant that tells how readily two partners part at equilibrium. High values mean weaker binding, low ones tighter binding.

(Values after patent US20240376186A1 (published 2024).)
